Test results reported in paper PMC5687031 (Molecular Biology of the Cell, 2017).

Legend:
[1] = molecular target: T1, Spc110^891-944 (S. cerevisiae, UniProt P32380 891-944); assay: crystal structure
T1 sequence (looked up): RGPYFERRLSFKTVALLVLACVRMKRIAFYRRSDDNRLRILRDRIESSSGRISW

[2] = molecular target: the molecule itself; assay: crystal structure
[3] = molecular target: T1, Spc110^891-944; assay: SAXS

stoichiometry N [1]: 1 calmodulin per Spc110 CBD (2:2) | stoichiometry N [3]: 1 calmodulin per Spc110^891-944
B1: Kluyveromyces lactis calmodulin (natural protein)
chain: not shown
modifications: disulfide between Cys79 of the two calmodulins in the crystal
stoichiometry N [2]: 2 calmodulin chains
